Data published in the nanobody polyreactivity screen of Harvey et al. (2022).

Test: yeast display, Sf9 membrane polyspecificity reagent, FACS + sequencing; frameworks hold sequencing errors
Summary of the method: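 Sorting gates, low and high (top ~1%), were placed on anti-HA fluorescence to track expression and on streptavidin fluorescence to track reagent binding. A clone's polyreactivity label is taken from the gate it came out of. The reagent was 10% biotinylated, detergent-solubilized Sf9 membrane, applied for 1 hour at 4 °C to galactose-induced yeast display cells.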

## QVHLVESGGGLVQAGGSLLLSCAASGIIFSYYAMGWYRQAPGKERELVAAISRSGVRPYYADSVKGRFTISRDNAKHTVYLQMYSLKPEDTAVYYCNAEFSPYPYDYWGQGTQVSVSS
  polyreactivity (PSR sort gate): high polyreactivity

## QVHLVESGGGLVQAGGSLRLICAASGRIYTFYAMGWYRQAPGKERHLVAAIRGSSVSTYYADSVKGRFTISRDNAKITVYLQMNSLKPEDTAVYYCAADIYLWNSEYYYWGQGTQVTVSS
  polyreactivity (PSR sort gate): low polyreactivity

## QVHLVESGGGLVQAGGSLRLRCAASGSTFEYNAMGWYRPAPGKERELVASSTNYADSVKGRFTISRDNAKNTVSLQMNSLKPEDTAVYYCSREQGVNRNHDYWVQGTQVTVSS
  polyreactivity (PSR sort gate): low polyreactivity

## QVHLVESGGGLVQAGGSLRLRSPASGRTFDDNAMGWYRQAPGKESEMVAGITDNGGGTNYADSVKGRFTISRDNAKNTVYLQMSSLKPEDTAVYYCAADGKLVYVNGYNLYYWGQGTQVTVSS
  polyreactivity (PSR sort gate): low polyreactivity

## QVHLVESGGGLVQAGGSLRLSCAASAFIFNRNAMGGYRQAHGKERELVAAISRSGGRTYYADSVKGRFTISRDHAKNTVYIQMNSLKPEDTAVYYCATEGYHGEFDYWGQGTQVTVSS
  polyreactivity (PSR sort gate): high polyreactivity

## QVHLVESGGGLVQAGGSLRLSCAASGFIFDPYGMGWYRQAPGKERELVAAISSRVGSTYYADSVKGRFTISRDNAKNTVYLQLNSLKPEDTAVYYCAADNDGVGYWVYEEMDYWGQGTQVTVSS
  polyreactivity (PSR sort gate): low polyreactivity

## QVHLVESGGGLVQAGGSLRLSCAASGFIFHSYAMGWYRQAPGKERELVASISRGGGSTYYADSVKGRFTISRDNAKNTVYLQMNSLKTEDTAVYYCNAVWRSNSRFDYWGQGTQVTVSS
  polyreactivity (PSR sort gate): high polyreactivity

## QVHLVESGGGLVQAGGSLRLSCAASGFIFRYYAMGWYRQAPGKEREMVAAISWSGGSTYYADSVKGRFTISRDNAKNTVYLQMNSLKPEDTAVYYCAADRYAILFYAEDYWGQGTQVTVSS
  polyreactivity (PSR sort gate): low polyreactivity

## QVHLVESGGGLVQAGGSLRLSCAASGFIFTYYTMGWYRQAPGKERELVAAISRSGARTYYADSVKGRFTISRDNAKNTVYLQMNSLKPEDTAVYYCNTDISYGYYPVGYDYWGQGTQVTVSS
  polyreactivity (PSR sort gate): high polyreactivity

## QVHLVESGGGLVQAGGSLRLSCAASGFIFYYYTMGWYRQAPGKEREFVAAITYSGGRTYYADSVKGRFTISRDNAKNSVYLQMNSLKPEDTSVYYCAAVPRYGPSYRMDYWGQGTQVTVSS
  polyreactivity (PSR sort gate): high polyreactivity

## QVHLVESGGGLVQAGGSLRLSCAASGFTFDAYAMGWYRQAPGKERELVAAITRRSGSTYYADSVKGRFTISRDNAKNTVYLQMNSLKPEDTAVYYCAAVSVHRLGSTFGYWGQGTQVTVSS
  polyreactivity (PSR sort gate): high polyreactivity

## QVHLVESGGGLVQAGGSLRLSCAASGFTFKDYAMGWYRQAPGKHTELVAAISYSGGSTYYADSVKGRFTISRDNAKNTVYLQMYSLKPEDTAVYYCNKGYPYVAYDYWGQGTQVTVSS
  polyreactivity (PSR sort gate): high polyreactivity

## QVHLVESGGGLVQAGGSLRLSCAASGFTFRVYAMGWYRPAPGKERELVAAITKRGGSTYYADSVKGRFTISRDNAKNTVYLQMNSLKPEDTAGYYCATENTPHYASHGYWGQGTQVTVSS
  polyreactivity (PSR sort gate): high polyreactivity

## QVHLVESGGGLVQAGGSLRLSCAASGFTFSTYAMGVSRQAPGKEREWVAAISSGGTTNYADSEKGRFTISRDNAMNTVYLQMNCLKPEDTAVYYCATGYGRWTAYSTSYDYWGQGTQVTVSS
  polyreactivity (PSR sort gate): low polyreactivity

## QVHLVESGGGLVQAGGSLRLSCAASGFTFSYYAMGWYRQPPGKERELVAAITTSGGRTYYADSVKGRFPISRDNAKNTVYLQMNSLKPEDTAVYYCAATYPRYYSGEFDYWGQGTQVTVSS
  polyreactivity (PSR sort gate): high polyreactivity

## QVHLVESGGGLVQAGGSLRLSCAASGFTFTLYAMGWYRQAPGKERELVAAIYFSGGNTYYADSVKGRFTISRDNAKNTVYLQMNSLKPEDTAVYYCAAEYYPSASYYYGWYTIFWLITRDDYYWGQGTQVTVSS
  polyreactivity (PSR sort gate): high polyreactivity

## QVHLVESGGGLVQAGGSLRLSCAASGFTFVSYAMGWYRQAPGKERELVDDINQSGGSTYYADSLKGRFTISRDNAKNTVYLQMNSQKPEDTAVYYCARDGDLWYYKGYGTLFDYWGQGTQVTVSS
  polyreactivity (PSR sort gate): low polyreactivity
